Experimental data: patent US20220396635A1 (UNIVERSIT T STUTTGART, published 2022)

Target: T1, CD3 (UniProt P07766 23-207)
T1 construct: whole, on cells; on cells it stands in the TCR/CD3 complex; also called CD3 on Jurkat cells
Assay: flow cytometry, serial dilution on Jurkat cells (CD3-expressing), PE anti-human Fc detection, n = 1
Experimental: Trivalent, trispecific antibodies were analyzed for their binding to tumor cell lines with different EGFR- and HER3-expression levels (Table 14) by flow cytometry. Adherent cells were washed with PBS and shortly trypsinized at 37° C. Trypsin was quenched with FCS-containing medium and removed by centrifugation (500×g, 5 min.). 1×10⁵ target cells/well (FaDu, LIM1215, SKBR-3, T-47-D, MCF-7 and Jurkat cells) were incubated with a serial dilution of trivalent, trispecific antibodies for 1 h at 4° C. After removing excess of recombinant protein by washing with PBA (PBS, 2% FBS, and 0.02% sodium azide), bound protein was detected using PE-conjugated anti-human Fc mAb (Jackson ImmunoResearch Laboratories Inc). Fluorescence was measured using MACSquant VYB (Miltenyi Biotec) and data were analyzed using FlowJo (Tree Star). Relative median fluorescence intensities (MFI) were calculated as followed: relative MFI=((MFIₛₐₘₚₗₑ-(MFIdetection-MFIcells))/MFIcells).

Binder | EC50 [nM]
scDb/Fab-Fc (1-2)+3, trivalent trispecific anti-EGFRxanti-HER3×anti-CD3 (other, Trispecific antibody: 1 = HER3, 2 = CD3, 3 = EGFR; also called scDb3-43xhuU3-Fc(hole)Δab + Fdhu225-Fc(knob)Δab + VLhu225-CLκ) QVQLQQSGPGLVKPSQTLSLTCAISGDSVSSNRAAWNWIRQSPSRGLEWLGRTYYRSKWYNDYAQSLKSRITINPDTPKNQFSLQLNSVTPEDTAVYYCARDGQLGLDALDIWGQGTMVTVSSGGGGSDIQMTQSPSSLSASVGDRVTITCRASQDIRNYLNWYQQKPGKAPKLLIYYTSRLHSGVPSRFSGSGSGTDFTFTISSLQPEDIATYYCQQGNTLPWTFGQGTKLEIKRGGGGSGGGGSGGGGSQVQLVQSGAEVKKPGSSVKVSCKASGGTFSGYTMNWVRQAPGQGLEWMGLINPYKGVSTYNGKFKDRVTITADKSTSTAYMELSSLRSEDTAVYYCARSGYYGDSDWYFDVWGQGTLVTVSSGGGGSQAGLTQPPAVSVAPGQTASITCGRDNIGSRSVHWYQQKPGQAPVLVVYDDSDRPAGIPERFSGSNYENTATLTISRVEAGDEADYYCQVWGITSDHVVFGGGTKLTVLAAADKTHTCPPCPAPPVAGPSVFLFPPKPKDTLMISRTPEVTCVVVDVSHEDPEVKFNWYVDGVEVHNAKTKPREEQYNSTYRVVSVLTVLHQDWLNGKEYKCKVSNKGLPSSIEKTISKAKGQPREPQVCTLPPSRDELTKNQVSLSCAVKGFYPSDIAVEWESNGQPENNYKTTPPVLDSDGSFFLVSKLTVDKSRWQQGNVFSCSVMHEALHNHYTQKSLSLSPGK heavy: EVQLVESGGGLVQPGGSLRLSCAASGFSLTNYGVHWVRQAPGKGLEWLGVIWSGGNTDYNTPFTSRFTISRDNSKNTLYLQMNSLRAEDTAVYYCARALTYYDYEFAYWGQGTTVTVSSASTKGPSVFPLAPSSKSTSGGTAALGCLVKDYFPEPVTVSWNSGALTSGVHTFPAVLQSSGLYSLSSVVTVPSSSLGTQTYICNVNHKPSNTKVDKKVEPKSCGTDKTHTCPPCPAPPVAGPSVFLFPPKPKDTLMISRTPEVTCVVVDVSHEDPEVKFNWYVDGVEVHNAKTKPREEQYNSTYRVVSVLTVLHQDWLNGKEYKCKVSNKGLPSSIEKTISKAKGQPREPQVYTLPPCRDELTKNQVSLWCLVKGFYPSDIAVEWESNGQPENNYKTTPPVLDSDGSFFLYSKLTVDKSRWQQGNVFSCSVMHEALHNHYTQKSLSLSPGK light: DIQLTQSPSFLSASVGDRVTITCRASQSIGTNIHWYQQKPGKAPKLLIKYASESISGVPSRFSGSGSGTEFTLTISSLQPEDFATYYCQQNNNWPTTFGAGTKLEIKRTVAAPSVFIFPPSDEQLKSGTASVVCLLNNFYPREAKVQWKVDNALQSGNSQESVTEQDSKDSTYSLSSTLTLSKADYEKHKVYACEVTHQGLSSPVTKSFNRGEC | 0.8
scDb/Fab-Fc (2-1)+3, trivalent trispecific anti-EGFRxanti-HER3×anti-CD3 (other, Trispecific antibody: 1 = HER3, 2 = CD3, 3 = EGFR; also called scDbhuU3x3-43-Fc(hole)Δab + Fdhu225-Fc(knob)Δab + VLhu225-CLκ) QVQLVQSGAEVKKPGSSVKVSCKASGGTFSGYTMNWVRQAPGQGLEWMGLINPYKGVSTYNGKFKDRVTITADKSTSTAYMELSSLRSEDTAVYYCARSGYYGDSDWYFDVWGQGTLVTVSSGGGGSQAGLTQPPAVSVAPGQTASITCGRDNIGSRSVHWYQQKPGQAPVLVVYDDSDRPAGIPERFSGSNYENTATLTISRVEAGDEADYYCQVWGITSDHVVFGGGTKLTVLGGGGSGGGGSGGGGSQVQLQQSGPGLVKPSQTLSLTCAISGDSVSSNRAAWNWIRQSPSRGLEWLGRTYYRSKWYNDYAQSLKSRITINPDTPKNQFSLQLNSVTPEDTAVYYCARDGQLGLDALDIWGQGTMVTVSSGGGGSDIQMTQSPSSLSASVGDRVTITCRASQDIRNYLNWYQQKPGKAPKLLIYYTSRLHSGVPSRFSGSGSGTDFTFTISSLQPEDIATYYCQQGNTLPWTFGQGTKLEIKRAAADKTHTCPPCPAPPVAGPSVFLFPPKPKDTLMISRTPEVTCVVVDVSHEDPEVKFNWYVDGVEVHNAKTKPREEQYNSTYRVVSVLTVLHQDWLNGKEYKCKVSNKGLPSSIEKTISKAKGQPREPQVCTLPPSRDELTKNQVSLSCAVKGFYPSDIAVEWESNGQPENNYKTTPPVLDSDGSFFLVSKLTVDKSRWQQGNVFSCSVMHEALHNHYTQKSLSLSPGK heavy: EVQLVESGGGLVQPGGSLRLSCAASGFSLTNYGVHWVRQAPGKGLEWLGVIWSGGNTDYNTPFTSRFTISRDNSKNTLYLQMNSLRAEDTAVYYCARALTYYDYEFAYWGQGTTVTVSSASTKGPSVFPLAPSSKSTSGGTAALGCLVKDYFPEPVTVSWNSGALTSGVHTFPAVLQSSGLYSLSSVVTVPSSSLGTQTYICNVNHKPSNTKVDKKVEPKSCGTDKTHTCPPCPAPPVAGPSVFLFPPKPKDTLMISRTPEVTCVVVDVSHEDPEVKFNWYVDGVEVHNAKTKPREEQYNSTYRVVSVLTVLHQDWLNGKEYKCKVSNKGLPSSIEKTISKAKGQPREPQVYTLPPCRDELTKNQVSLWCLVKGFYPSDIAVEWESNGQPENNYKTTPPVLDSDGSFFLYSKLTVDKSRWQQGNVFSCSVMHEALHNHYTQKSLSLSPGK light: DIQLTQSPSFLSASVGDRVTITCRASQSIGTNIHWYQQKPGKAPKLLIKYASESISGVPSRFSGSGSGTEFTLTISSLQPEDFATYYCQQNNNWPTTFGAGTKLEIKRTVAAPSVFIFPPSDEQLKSGTASVVCLLNNFYPREAKVQWKVDNALQSGNSQESVTEQDSKDSTYSLSSTLTLSKADYEKHKVYACEVTHQGLSSPVTKSFNRGEC | 1.1

Now from value to binder:

EC50 [nM] | Binder
1.6 | scDb/scFv-Fc (1-2)+3, trivalent trispecific anti-EGFRxanti-HER3×anti-CD3 (other, Trispecific antibody: 1 = HER3 (3-43), 2 = CD3 (huU3), 3 = EGFR (hu225); also called scDb3-43xhuU3-Fc(hole)Δab + scFvhu225-Fc(knob)Δab) chain 1: QVQLQQSGPGLVKPSQTLSLTCAISGDSVSSNRAAWNWIRQSPSRGLEWLGRTYYRSKWYNDYAQSLKSRITINPDTPKNQFSLQLNSVTPEDTAVYYCARDGQLGLDALDIWGQGTMVTVSSGGGGSDIQMTQSPSSLSASVGDRVTITCRASQDIRNYLNWYQQKPGKAPKLLIYYTSRLHSGVPSRFSGSGSGTDFTFTISSLQPEDIATYYCQQGNTLPWTFGQGTKLEIKRGGGGSGGGGSGGGGSQVQLVQSGAEVKKPGSSVKVSCKASGGTFSGYTMNWVRQAPGQGLEWMGLINPYKGVSTYNGKFKDRVTITADKSTSTAYMELSSLRSEDTAVYYCARSGYYGDSDWYFDVWGQGTLVTVSSGGGGSQAGLTQPPAVSVAPGQTASITCGRDNIGSRSVHWYQQKPGQAPVLVVYDDSDRPAGIPERFSGSNYENTATLTISRVEAGDEADYYCQVWGITSDHVVFGGGTKLTVLAAADKTHTCPPCPAPPVAGPSVFLFPPKPKDTLMISRTPEVTCVVVDVSHEDPEVKFNWYVDGVEVHNAKTKPREEQYNSTYRVVSVLTVLHQDWLNGKEYKCKVSNKGLPSSIEKTISKAKGQPREPQVCTLPPSRDELTKNQVSLSCAVKGFYPSDIAVEWESNGQPENNYKTTPPVLDSDGSFFLVSKLTVDKSRWQQGNVFSCSVMHEALHNHYTQKSLSLSPGK chain 2: EVQLVESGGGLVQPGGSLRLSCAASGFSLTNYGVHWVRQAPGKGLEWLGVIWSGGNTDYNTPFTSRFTISRDNSKNTLYLQMNSLRAEDTAVYYCARALTYYDYEFAYWGQGTTVTVSSGGGGSGGGGSGGGGSDIQLTQSPSFLSASVGDRVTITCRASQSIGTNIHWYQQKPGKAPKLLIKYASESISGVPSRFSGSGSGTEFTLTISSLQPEDFATYYCQQNNNWPTTFGAGTKLEIKRAAADKTHTCPPCPAPPVAGPSVFLFPPKPKDTLMISRTPEVTCVVVDVSHEDPEVKFNWYVDGVEVHNAKTKPREEQYNSTYRVVSVLTVLHQDWLNGKEYKCKVSNKGLPSSIEKTISKAKGQPREPQVYTLPPCRDELTKNQVSLWCLVKGFYPSDIAVEWESNGQPENNYKTTPPVLDSDGSFFLYSKLTVDKSRWQQGNVFSCSVMHEALHNHYTQKSLSLSPGK
2.6 | scDb/scFv-Fc (2-1)+3, trivalent trispecific anti-EGFRxanti-HER3×anti-CD3 (other, Trispecific antibody: 1 = HER3, 2 = CD3, 3 = EGFR; also called scDbhuU3x3-43-Fc(hole)Δab + scFvhu225-Fc(knob)Δab) chain 1: QVQLVQSGAEVKKPGSSVKVSCKASGGTFSGYTMNWVRQAPGQGLEWMGLINPYKGVSTYNGKFKDRVTITADKSTSTAYMELSSLRSEDTAVYYCARSGYYGDSDWYFDVWGQGTLVTVSSGGGGSQAGLTQPPAVSVAPGQTASITCGRDNIGSRSVHWYQQKPGQAPVLVVYDDSDRPAGIPERFSGSNYENTATLTISRVEAGDEADYYCQVWGITSDHVVFGGGTKLTVLGGGGSGGGGSGGGGSQVQLQQSGPGLVKPSQTLSLTCAISGDSVSSNRAAWNWIRQSPSRGLEWLGRTYYRSKWYNDYAQSLKSRITINPDTPKNQFSLQLNSVTPEDTAVYYCARDGQLGLDALDIWGQGTMVTVSSGGGGSDIQMTQSPSSLSASVGDRVTITCRASQDIRNYLNWYQQKPGKAPKLLIYYTSRLHSGVPSRFSGSGSGTDFTFTISSLQPEDIATYYCQQGNTLPWTFGQGTKLEIKRAAADKTHTCPPCPAPPVAGPSVFLFPPKPKDTLMISRTPEVTCVVVDVSHEDPEVKFNWYVDGVEVHNAKTKPREEQYNSTYRVVSVLTVLHQDWLNGKEYKCKVSNKGLPSSIEKTISKAKGQPREPQVCTLPPSRDELTKNQVSLSCAVKGFYPSDIAVEWESNGQPENNYKTTPPVLDSDGSFFLVSKLTVDKSRWQQGNVFSCSVMHEALHNHYTQKSLSLSPGK chain 2: EVQLVESGGGLVQPGGSLRLSCAASGFSLTNYGVHWVRQAPGKGLEWLGVIWSGGNTDYNTPFTSRFTISRDNSKNTLYLQMNSLRAEDTAVYYCARALTYYDYEFAYWGQGTTVTVSSGGGGSGGGGSGGGGSDIQLTQSPSFLSASVGDRVTITCRASQSIGTNIHWYQQKPGKAPKLLIKYASESISGVPSRFSGSGSGTEFTLTISSLQPEDFATYYCQQNNNWPTTFGAGTKLEIKRAAADKTHTCPPCPAPPVAGPSVFLFPPKPKDTLMISRTPEVTCVVVDVSHEDPEVKFNWYVDGVEVHNAKTKPREEQYNSTYRVVSVLTVLHQDWLNGKEYKCKVSNKGLPSSIEKTISKAKGQPREPQVYTLPPCRDELTKNQVSLWCLVKGFYPSDIAVEWESNGQPENNYKTTPPVLDSDGSFFLYSKLTVDKSRWQQGNVFSCSVMHEALHNHYTQKSLSLSPGK
